This note sets out measurements from paper PMC7697860.

Experiment [1] deals with GST-PfPV1 (wheat germ cell-free expression) (Plasmodium falciparum 3D7). Briefly: SPR; […] (amine coupling), […]; Biacore X100, single-cycle kinetics, 1:1; HBS-EP+ (10 mM HEPES pH 7.4, 150 mM NaCl, 3 mM EDTA, 0.05% P20).
Experiment [2] has the same target. Described as above. The source holds these as a separate data set.

Read-outs that look alike come from different tables or passages of the source.

As a reminder, the Kd is the constant that tells how readily two partners part at equilibrium. Broadly, the koff is a measure of how fast the partners let go of each other. Usually kon stands for the rate constant with which the complex forms. In experiment [1], GST-PTEX150 (natural protein) yielded a Kd of 54.5 nM, a koff of 0.00204 s⁻¹ and a kon of 37300 M⁻¹ s⁻¹. In experiment [2], this substance gave a Kd of 54.6 nM.

In experiment [1], GST-HSP101 (natural protein) showed a Kd of 10.5 nM, a koff of 0.000914 s⁻¹ and a kon of 87000 M⁻¹ s⁻¹.

Turning to GST-EXP2 (natural protein), in experiment [1], the Kd stood at 110 nM, the koff is 0.000989 s⁻¹ and the kon came to 9030 M⁻¹ s⁻¹.
